Measured values: patent EP4471049A1 (Zealand Pharma A/S, priority 2023, dated 2024)
*1 amine or outer side, *2 acyl side, *3 side chain or, on linkers, in order; H or OH if unused. Where a SMILES comes first, the peptide text is derived from it. Bridges are numbered along the chain shown (N, C = ends). Where no end group is shown, it is not given here. [ ]: non-standard residue; d: D form. 4‑Aminomethyl‑phenylacetyl = 4-aminomethyl-phenylacetyl unit, its amine closes the lactam, O=C(Cc1ccc(CN[*:1])cc1)[*:2]; 2Nal = N[C@@H](Cc1ccc2ccccc2c1)C(=O)O; AEF = NCCOc1ccc(C[C@H](N)C(=O)O)cc1; 3Pal = N[C@@H](Cc1cccnc1)C(=O)O; αMeL = CC(C)C[C@](C)(N)C(=O)O; CH2COCH2 = O=C(C[*:1])C[*:2]; 3Amb = NCc1cccc(C(=O)O)c1; NMeS = CN[C@@H](CO)C(=O)O; Dab = NCC[C@H](N)C(=O)O

B1: Compound 18 (peptide)
peptide: [4‑Aminomethyl‑phenylacetyl][NMeS]EWQ[Dab][AEF][2Nal][αMeL]E[Dab][3Pal]-NHMe
modifications: lactam (positions not given here); lactam 3-6; not fully specified (bridges)
B2: Compound 21 (peptide)
peptide: [4‑Aminomethyl‑phenylacetyl]FEWQ[Dab][AEF][2Nal][αMeL]E[Dab][3Pal]-NHMe
modifications: lactam N-10, 3-6
SMILES: CNC(=O)[C@H](Cc1cccnc1)NC(=O)[C@H](CCN)NC(=O)[C@@H]1CCC(=O)NCc2ccc(cc2)CC(=O)N[C@@H](Cc2ccccc2)C(=O)N[C@H]2CCC(=O)NCC[C@H](NC(=O)[C@H](CCC(N)=O)NC(=O)[C@H](Cc3c[nH]c4ccccc34)NC2=O)C(=O)N[C@@H](Cc2ccc(OCCN)cc2)C(=O)N[C@@H](Cc2ccc3ccccc3c2)C(=O)N[C@@](C)(CC(C)C)C(=O)N1
B3: Compound 12 (peptide)
peptide: [4‑Aminomethyl‑phenylacetyl]SEWQ[Dab][AEF][2Nal][αMeL]E[Dab]H[3Pal]-NH2
modifications: lactam (positions not given here); lactam 3-6; not fully specified (bridges)
B4: Compound 22 (peptide)
peptide: [4‑Aminomethyl‑phenylacetyl]SEWA[Dab][AEF][2Nal][αMeL]E[Dab][3Pal]-NHMe
modifications: lactam N-10, 3-6
SMILES: CNC(=O)[C@H](Cc1cccnc1)NC(=O)[C@H](CCN)NC(=O)[C@@H]1CCC(=O)NCc2ccc(cc2)CC(=O)N[C@@H](CO)C(=O)N[C@H]2CCC(=O)NCC[C@H](NC(=O)[C@H](C)NC(=O)[C@H](Cc3c[nH]c4ccccc34)NC2=O)C(=O)N[C@@H](Cc2ccc(OCCN)cc2)C(=O)N[C@@H](Cc2ccc3ccccc3c2)C(=O)N[C@@](C)(CC(C)C)C(=O)N1
B5: Compound 23 (peptide)
peptide: [4‑Aminomethyl‑phenylacetyl]SEWF[Dab][AEF][2Nal][αMeL]E[Dab][3Pal]-NHMe
modifications: lactam N-10, 3-6
SMILES: CNC(=O)[C@H](Cc1cccnc1)NC(=O)[C@H](CCN)NC(=O)[C@@H]1CCC(=O)NCc2ccc(cc2)CC(=O)N[C@@H](CO)C(=O)N[C@H]2CCC(=O)NCC[C@H](NC(=O)[C@H](Cc3ccccc3)NC(=O)[C@H](Cc3c[nH]c4ccccc34)NC2=O)C(=O)N[C@@H](Cc2ccc(OCCN)cc2)C(=O)N[C@@H](Cc2ccc3ccccc3c2)C(=O)N[C@@](C)(CC(C)C)C(=O)N1
B6: Ref 155 (peptide)
peptide: Ac-KTCWQC[AEF][2Nal][αMeL]E[Dab][3Pal]-NH2
modifications: lactam 1-10; bridge 3-6; not fully specified (bridges); printed as [Ac]-K(1c)TC(2a)WQC(2a)[Y(2-aminoethoxy)][2-Nal][2-Me-Leu]E(1c)[Dab][3-(3-Pyridyl)-Ala]-[NH2]
B7: Ref 82 (peptide)
peptide: [4‑Aminomethyl‑phenylacetyl]SCWQC[AEF][2Nal][αMeL]E[Dab]-NH2
modifications: lactam N-10; bridge 3-6; not fully specified (bridges); printed as [4-Aminomethyl-phenylacetyl](1c)*SC(2a)WQC(2a)[Y(2-aminoethoxy)][2-Nal][2-Me-Leu]E(1c)[Dab]-[NH2]
B8: Ref 120 (peptide)
peptide: [4‑Aminomethyl‑phenylacetyl]SCWQC[AEF][2Nal][αMeL]E[Dab][3Pal]-NH2
modifications: lactam N-10; bridge 3-6; not fully specified (bridges); printed as [4-Aminomethyl-phenylacetyl](1c)*SC(2a)WQC(2a)[Y(2-aminoethoxy)][2-Nal][2-Me-Leu]E(1c)[Dab][3-(3-Pyridyl)-Ala]-[NH2]
B9: Ref 78 (peptide)
peptide: [3Amb]SCWQC[AEF][2Nal][αMeL]ER[3Pal]-NH2
modifications: lactam N-10; bridge 3-6; not fully specified (bridges); printed as [(3-Aminomethyl)benzoyl](1c)*SC(2a)WQC(2a)[Y(2-aminoethoxy)][2-Nal][2-Me-Leu]E(1c)R[3-(3-Pyridyl)-Ala]-[NH2]

Columns and labels:
[1] = Peptide stability in simulated gastric fluid (SGF); type: in vitro ADME; conditions: 37 °C, pH 1.2, porcine pepsin 3.2 g/L, 10 µM
Protocol: SGF was prepared by dissolving sodium chloride (0.2 g) in 50 mL of water. A volume of 0.7 mL of 10 M HCl was added to adjust the pH of the solution to 1.2 and the volume made up to 100 mL with water. […] SIF was prepared by dissolving monobasic potassium phosphate (0.68 g) in 50 mL of water and adjusting the pH to 6.8 with 1 M NaOH. The volume was subsequently made up to 100 mL with water. 200 mg porcine pancreatin (P1625, Sigma Aldrich) was gently dissolved into 20 mL preheated (37 °C) solution (10 g/L) immediately prior to the incubation.
The incubation was performed at 37 °C with gentle shaking. […] After the last timepoint, the sampling plate was mixed for 10 min on a shaking table and centrifuged 10 min at 2200 g. 70 µL resulting supernatant was diluted with 150 µL water, mixed and centrifugated before analysis by liquid chromatography high resolution mass spectrometry. […] Percent remaining at each timepoint was calculated relative to timepoint zero based on absolute peak areas.
Compounds with a SGF stability (after 4 h) above 70% are considered highly SGF stable. […] Table 3-4: SGF data

[2] = target: T1, Nluc-IL23R fusion protein (human, UniProt Q5VWK5 22-629); assay: BRET competition vs TAMRA-labelled peptide, Nluc-IL23R membranes
T1 construct: range 22-629; expressed with a secretion signal in HEK293 cells; used as crude membrane preparation; also called hIL-23R; human IL-23R; not shown: Nanoluc protein from the expression plasmid N1371 (Promega), N-terminal of IL-23R
T1 sequence (looked up): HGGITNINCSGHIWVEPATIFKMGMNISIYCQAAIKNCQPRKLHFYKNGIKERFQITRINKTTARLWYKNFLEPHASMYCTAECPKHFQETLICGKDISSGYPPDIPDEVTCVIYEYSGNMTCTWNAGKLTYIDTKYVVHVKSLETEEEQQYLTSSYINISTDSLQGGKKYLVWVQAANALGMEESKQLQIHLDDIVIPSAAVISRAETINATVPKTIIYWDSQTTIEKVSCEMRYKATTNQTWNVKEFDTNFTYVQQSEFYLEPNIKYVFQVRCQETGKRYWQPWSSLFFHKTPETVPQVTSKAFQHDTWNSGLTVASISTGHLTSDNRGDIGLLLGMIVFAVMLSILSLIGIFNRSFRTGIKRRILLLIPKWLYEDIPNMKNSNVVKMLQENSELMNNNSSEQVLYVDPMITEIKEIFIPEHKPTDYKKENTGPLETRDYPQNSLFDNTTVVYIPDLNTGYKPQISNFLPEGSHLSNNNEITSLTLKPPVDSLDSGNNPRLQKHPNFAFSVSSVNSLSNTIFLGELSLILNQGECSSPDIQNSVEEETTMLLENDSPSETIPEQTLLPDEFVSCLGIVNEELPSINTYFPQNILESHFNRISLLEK

[3] = target: T2, human IL-23R endogenously expressed on DB cells (human, UniProt Q5VWK5 24-629); assay: cell-based or functional assay
T2 sequence (looked up): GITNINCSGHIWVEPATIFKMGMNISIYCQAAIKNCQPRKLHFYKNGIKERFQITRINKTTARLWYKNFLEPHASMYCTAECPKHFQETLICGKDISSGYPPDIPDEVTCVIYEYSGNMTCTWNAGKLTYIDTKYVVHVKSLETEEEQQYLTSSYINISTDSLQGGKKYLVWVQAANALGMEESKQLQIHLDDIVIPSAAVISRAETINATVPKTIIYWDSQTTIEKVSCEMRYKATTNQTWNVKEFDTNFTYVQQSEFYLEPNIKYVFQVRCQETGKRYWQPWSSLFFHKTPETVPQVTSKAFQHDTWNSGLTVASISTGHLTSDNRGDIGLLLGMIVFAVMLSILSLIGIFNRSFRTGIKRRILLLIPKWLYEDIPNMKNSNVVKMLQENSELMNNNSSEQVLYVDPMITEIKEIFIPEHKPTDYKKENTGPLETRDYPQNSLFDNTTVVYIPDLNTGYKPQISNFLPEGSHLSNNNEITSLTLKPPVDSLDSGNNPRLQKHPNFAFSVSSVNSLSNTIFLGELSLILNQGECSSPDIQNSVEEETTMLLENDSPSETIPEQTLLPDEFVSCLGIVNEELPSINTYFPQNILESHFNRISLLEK

Molecule	SGF (% remaining 1 h) [1] [%]	SGF (% remaining 4 h) [1] [%]	% displacement (hIL-23R binding) [2] [%]	hIL-23 (pSTAT3) antagonist % inhibition [3] [%]	hIL-23 (pSTAT3) antagonist IC50 [3] [nM]	IC50 [2] [nM]
CC(=O)N[C@@H](CC(=O)O)C(=O)N[C@H]1CCC(=O)NCCCC[C@@H](C(=O)N[C@@H](CCCNC(=N)N)C(N)=O)NC(=O)[C@H](CC(C)C)NC(=O)[C@H](Cc2ccc3ccccc3c2)NC(=O)[C@H](Cc2c[nH]c3ccccc23)NC(=O)[C@@H]2CSCC(=O)CSC[C@H](NC(=O)[C@H](CO)NC1=O)C(=O)N[C@@H](Cc1c[nH]c3ccccc13)C(=O)N[C@@H](CCC(N)=O)C(=O)N2 [Ref 17, [Ac]-DE(1c)SC(2a)WQC(2a)W[2-Nal]LK(1c)R-[NH2], reference compound]	0	0	–	–	–	–
CC(C)C[C@@H]1NC(=O)[C@H](Cc2c[nH]c3ccccc23)NC(=O)[C@H](Cc2c[nH]c3ccccc23)NC(=O)[C@@H]2CSCC(=O)CSC[C@H](NC(=O)[C@H](CO)NC(=O)[C@@H](NC(=O)[C@@H](N)CC(=O)O)CCC(=O)NCCCC[C@@H](C(=O)N[C@@H](CCCNC(=N)N)C(N)=O)NC1=O)C(=O)N[C@@H](Cc1c[nH]c3ccccc13)C(=O)N[C@@H](CCC(N)=O)C(=O)N2 [Ref 4, H-DE(1c)SC(2a)WQC(2a)WWLK(1c)R-[NH2], reference compound] (HELM PEPTIDE1{D.E.S.C.W.Q.C.W.W.L.K.R.[am]}|CHEM1{[O=C(C[*:1])C[*:2]]}$PEPTIDE1,PEPTIDE1,2:R3-11:R3|PEPTIDE1,CHEM1,4:R3-1:R1|PEPTIDE1,CHEM1,7:R3-1:R2$$$V2.0)	1	0	–	–	–	–
CC(C)C[C@@H]1NC(=O)[C@H](Cc2ccc3ccccc3c2)NC(=O)[C@H](Cc2c[nH]c3ccccc23)NC(=O)[C@@H]2CSCC(=O)CSC[C@H](NC(=O)[C@H](CO)NC(=O)c3cccc(c3)CNC(=O)CC[C@@H](C(=O)N[C@@H](CCCNC(=N)N)C(N)=O)NC1=O)C(=O)N[C@@H](Cc1c[nH]c3ccccc13)C(=O)N[C@@H](CCC(N)=O)C(=O)N2 [Ref 37, [(3-Aminomethyl)benzoyl](1c)*SC(2a)WQC(2a)W[2-Nal]LE(1c)R-[NH2], reference compound] ([3Amb]SCWQCW[2Nal]LER-NH2; linker 3-6 via CH2COCH2; lactam N-10)	2	1	–	–	–	–
B1	–	–	96	–	–	–
B2	–	–	95	102	0.063	–
B3	–	–	104	100	3.5	–
B4	–	–	96	101	3.4	0.035
B5	–	–	97	99	5.2	0.12
B6	–	–	97	100	0.031	–
B7	–	–	103	97	11	–
B8	–	–	94	101	0.054	–
B9	–	–	100	100	0.13	–
